Like-named read-outs stand apart in the source and are kept apart here.
B1: LEF1 P2 YY1-site mutant probe (ATG to CGT) (dsDNA)
DNA 1: AAAGCATCCAGCGTGAGGCCTCTAC
DNA 2: GTAGAGGCCTCACGCTGGATGCTTT
B2: LEF1 P2 wild-type probe (+13 to +37) (dsDNA)
DNA 1: AAAGCATCCAGATGGAGGCCTCTAC
DNA 2: GTAGAGGCCTCCATCTGGATGCTTT

Tests used:
[1] = target: T1, YY1 (Yin Yang 1) (human, UniProt P25490 1-414); test: EMSA
[2] = target: T1, YY1 (Yin Yang 1); test: EMSA; remark: listed apart in the source

T1 sequence (P25490 whole entry): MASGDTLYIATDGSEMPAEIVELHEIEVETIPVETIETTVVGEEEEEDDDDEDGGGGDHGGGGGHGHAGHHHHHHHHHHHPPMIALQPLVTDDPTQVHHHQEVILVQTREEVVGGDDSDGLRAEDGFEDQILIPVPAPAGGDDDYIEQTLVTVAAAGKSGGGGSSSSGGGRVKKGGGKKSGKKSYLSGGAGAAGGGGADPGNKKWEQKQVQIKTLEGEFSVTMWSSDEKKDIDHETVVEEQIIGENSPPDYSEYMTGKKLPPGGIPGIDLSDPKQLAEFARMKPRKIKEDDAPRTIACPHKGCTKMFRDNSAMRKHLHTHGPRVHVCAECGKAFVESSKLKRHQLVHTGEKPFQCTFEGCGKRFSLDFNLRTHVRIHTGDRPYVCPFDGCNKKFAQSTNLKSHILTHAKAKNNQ

Binder | binding result [1] | binding result [2]
B1 | no binding | 
B2 |  | binds

— publication PMC2965227
